Experimental data published in article PMC4282169.

How the values were obtained:
[1] = substrate: O=[N+]([O-])c1ccc(O[C@@H]2O[C@@H](CO)[C@H](O)[C@H]2O)cc1; assay: 4-nitrophenolate release, A410; format: biochemical, Bacteroides ovatus; settings: 37 °C, 50 mM buffer at or near pH optimum (6.0-7.0)
[2] = substrate: O=[N+]([O-])c1ccc(O[C@@H]2OC[C@@H](O)[C@H](O)[C@H]2O)cc1; assay: 4-nitrophenolate release, A410; format: biochemical, Bacteroides ovatus; settings: 37 °C, 50 mM buffer at or near pH optimum (6.0-7.0)
[3] = substrate: O=[N+]([O-])c1ccc(O[C@@H]2O[C@H](CO)[C@@H](O[C@@H]3O[C@H](CO[C@H]4OC[C@@H](O)[C@H](O)[C@H]4O)[C@@H](O[C@@H]4O[C@H](CO[C@H]5OC[C@@H](O)[C@H](O)[C@H]5O)[C@@H](O[C@@H]5O[C@H](CO[C@H]6OC[C@@H](O)[C@H](O)[C@H]6O)[C@@H](O)[C@H](O)[C@H]5O)[C@H](O)[C@H]4O)[C@H](O)[C@H]3O)[C@H](O)[C@H]2O)c(Cl)c1; assay: 2-chloro-4-nitrophenolate release, A405, continuous; format: biochemical, Bacteroides ovatus; settings: 37 °C, 50 mM buffer at or near pH optimum (6.0-7.0)
[4] = substrate: O=[N+]([O-])c1ccc(O[C@@H]2O[C@H](CO)[C@@H](O[C@@H]3O[C@H](CO)[C@@H](O[C@@H]4O[C@H](CO)[C@@H](O[C@@H]5O[C@H](CO)[C@@H](O)[C@H](O)[C@H]5O)[C@H](O)[C@H]4O)[C@H](O)[C@H]3O)[C@H](O)[C@H]2O)c(Cl)c1; assay: as above; format: biochemical, Bacteroides ovatus; settings: 37 °C, 50 mM buffer at or near pH optimum (6.0-7.0)
[5] = substrate: O=[N+]([O-])c1ccc(O[C@@H]2O[C@H](CO)[C@@H](O)[C@H](O)[C@H]2O)cc1; assay: purified protein; settings: 37 °C, 50 mM buffer at or near pH optimum (6.0-7.0)
[6] = substrate: O=[N+]([O-])c1ccc(O[C@@H]2O[C@@H](CO)[C@H](O)[C@H]2O)cc1; assay: continuous 4-nitrophenolate release; format: biochemical, Bacteroides ovatus; settings: 37 °C, pH 7.0
[7] = substrate: O=[N+]([O-])c1ccc(O[C@@H]2O[C@H](CO)[C@H](O)[C@H](O)[C@H]2O)cc1; assay: purified protein; settings: 37 °C, 50 mM buffer at or near pH optimum (6.0-7.0)
[8] = substrate: O=[N+]([O-])c1ccc(O[C@H]2O[C@H](CO)[C@@H](O)[C@H](O)[C@H]2O)cc1; assay: purified protein; settings: 37 °C, 50 mM buffer at or near pH optimum (6.0-7.0)
[9] = substrate: O=[N+]([O-])c1ccc(O[C@H]2OC[C@@H](O)[C@H](O)[C@H]2O)cc1; assay: 4-nitrophenolate release, A410; format: biochemical, Bacteroides ovatus; settings: 37 °C, 50 mM buffer at or near pH optimum (6.0-7.0)
[10] = substrate: OC[C@H]1O[C@@H](O[C@H]2[C@@H](OC[C@H]3O[C@@H](O[C@H]4[C@H](O)[C@@H](O)[C@H](O[C@H]5[C@H](O)[C@@H](O)C(O)O[C@@H]5CO)O[C@@H]4CO[C@H]4OC[C@@H](O)[C@H](O)[C@H]4O[C@@H]4O[C@H](CO)[C@H](O)[C@H](O)[C@H]4O)[C@H](O)[C@@H](O)[C@@H]3O[C@@H]3O[C@H](CO[C@H]4OC[C@@H](O)[C@H](O)[C@H]4O)[C@@H](O)[C@H](O)[C@H]3O)OC[C@@H](O)[C@@H]2O)[C@H](O)[C@@H](O)[C@H]1O; assay: HPLC; format: biochemical, Bacteroides ovatus; settings: 37 °C, 50 mM buffer at or near pH optimum (6.0-7.0)

B1: BoGH43A (Bacteroides ovatus ATCC 8483) (protein)
chain: QGYSNPVIPGFHPDPSVCKAGDDYYLVNSSFQYFPGVPLFHSKDLVHWEQIGNCLTRPSQLDLTNANSGSGIFAPTIRYNDGVFYMITTNVSGKGNFLVHTTDPRSEWSEPVWLEQGGIDPSLYFEDGKCFMVSNPDGYINLCEIDPMTGKQLSSSKRIWNGTGGRYAEGPHIYKKDGWYYLLISEGGTELGHKVTIARSRYIDGPYQGNPANPILTHANESGQSSPIQGTGHADLVEGTDGSWWMVCLAYRIMPGTHHTLGRETYLAPVRWDKDAWPVVNSNGTISLKMDVPTLPQQEMKGRPERIDFKEGKLSPEWIHLQNPEAKNYIFTKDGKLRLIATPVTLSDWKSPTFVALRQEHFDMEASAPVVLQKAGVNDEAGISVFMEFHSHYDLFVRQDKDRKRSVGLRYKLGEITHYAKEVSLPTDGEVELVVKSDINYYYFGYKVNGIYHDLGKMNTRYLSTETAGGFTGVVLGLYITSASKDSKAYADFEYFKYKGKPGENK
Km [1]: 710 ± 30 µM
kcat [1]: 0.057 ± 0.001 s⁻¹
kcat/Km [1]: 81 M⁻¹ s⁻¹
Km [2]: 6580 ± 210 µM
kcat [2]: 0.26 ± 0.005 s⁻¹
kcat/Km [2]: 39 M⁻¹ s⁻¹

B2: BoGH5A (Bacteroides ovatus ATCC 8483) (protein)
chain: SNSDEKGGSLEVAQEYRNLEFDARGSRQTIQIDGPAEWHISTSESWCKSSHTIGEGKQYVNITVEANDTQKERTATVTVSASGAPDIIINVKQSLYSVPAYDEYIAPDNTGMRDLTSMQLSALMKAGVNVGNTFEAVIVGNDGSLSGDETCWGNPTPNKVLFEGIKAAGFDVVRIPVAYSHQFEDAATYKIKSAWMDKVEAAVKAALDAGLYVIINIHWEGGWLNHPVDANKEALDERLEAMWKQIALRFRDYDDRLLFAGTNEVNNDDANGAQPTEENYRVQNGFNQVFVNTVRATGGRNHYRHLIVQAYNTDVAKAVAHFTMPLDIVQNRIFLECHYYDPYDFTIMPNDENFKSQWGAAFAGGDVSATGQEGDIEATLSSLNVFINNNVPVIIGEYGPTLRDQLTGEALENHLKSRNDYIEYVVKTCVKNKLVPLYWDAGYTEKLFDRTTGQPHNAASIAAIMKGLN
Km [3]: 36 ± 2.7 µM
kcat [3]: 10.5 ± 0.14 s⁻¹
kcat/Km [3]: 292000 M⁻¹ s⁻¹
Km [4]: 3590 ± 1270 µM
kcat [4]: 0.12 ± 0.025 s⁻¹
kcat/Km [4]: 34 M⁻¹ s⁻¹

B3: BoGH3B (Bacteroides ovatus ATCC 8483) (protein)
chain: QTASPVIPTDPAIETHIREWLQKMTLEQKIGQMCEITIDVVSDLETSRKKGFCLSEAMLDTVIGKYKVGSLLNVPLGVAQKKEKWAEAIKQIQEKSMKEIGIPCIYGVDQIHGTTYTLDGTMFPQGINMGATFNRELTRRGAKISAYETKAGCIPWTFAPVVDLGRDPRWARMWENYGEDCYVNAEMGVSAVKGFQGEDPNRIGEYNVAACMKHYMGYGVPVSGKDRTPSSISRSDMREKHFAPFLAAVRQGALSVMVNSGVDNGLPFHANRELLTEWLKEDLNWDGLIVTDWADINNLCTRDHIAATKKEAVKIVINAGIDMSMVPYEVSFCDYLKELVEEGEVSMERIDDAVARVLRLKYRLGLFDHPYWDIKKYDKFGSKEFAAVALQAAEESEVLLKNDGNILPIAKGKKILLTGPNANSMRCLNGGWSYSWQGHVADEYAQAYHTIYEALCEKYGKENIIYEPGVTYASYKNDNWWEENKPETEKPVAAAAQADIIITCIGENSYCETPGNLTDLTLSENQRNLVKALAATGKPIVLVLNQGRPRIINDIVPLAKAVVNIMLPSNYGGDALANLLAGDANFSGKMPFTYPRLINALATYDYKPCENMGQMGGNYNYDSVMDIQWPFGFGLSYTNYKYSNLKVNKPTFNADDELIFTVDVTNTGKVAGKESVLLFSKDLVASSTPDNIRLRNFEKVSLEPGETKTVTLKLKGSDLAFVGYDGKWRLEKGDFKIKCGDQWMDIVCDQTKVWNTPNKNTLHK
Km [5]: 155 ± 39 µM
kcat [5]: 1.74 s⁻¹
kcat/Km [5]: 11200 M⁻¹ s⁻¹

B4: BoGH43B (Bacteroides ovatus ATCC 8483) (protein)
chain: QKTFRNPIITGMNPDPSICRVGDDFYLVTSTFEYFPGLPVYHSKDLVHWKLIGHALSRPENNPLMGCNASTGGQYAPTLRYHDGTFYVIGTNYGGKGSQGVFYVTAKNPAGPWSDPVWVGNWYVDPSIEFIDGKMYFLSPDNQGSFLLGVMDPETGTFVEALRKVASGLGGSSPEGPHFYKIGDYYYIMSAEGGTGYEHREVIQRSKSPWGPYEPSPVNPVLSNMNCPDHPFQAIGHADLVQLKDGSWWAVCLGIRPVNGKYQHLGRETFLAPVTWDADGWPKVGKDGVVQETYLFPNLPSHVWMEQPVRDDFDQETLGLDWTFIRNPAHSFWSLTEKPGSLRLKGTAINFTTNDSPSFIGRRQAAFNLTASAKVNFIPKVENEEAGLVVRADDKNHYDLLITERNGQRVAMIRKTLKDKVVDTTCKELPATGEVILSITATETTYTFEIKAAHVSAILGTASTRDVSNEVVGGFTGVFIGMYASGNGQANTNPADFDWFDFRCLD
Km [6]: 6600 ± 2300 µM
kcat [6]: 0.0005 ± 8.1e-05 s⁻¹
kcat/Km [6]: 0.076 M⁻¹ s⁻¹

B5: BoGH2A (Bacteroides ovatus ATCC 8483) (protein)
chain: LALGGCLMLLGACSSSSLVSPRERSDFNADWRFHLGDGLQAAQPGFADNDWRVLDLPHDWAIEGDFSQENPSGTGGGALPGGVGWYRKTFSVDKADAGKIFRIEFDGVYMNSEVFINGVSLGVRPYGYISFSYDLTPYLKWDEPNVLAVRVDNAEQPNSRWYSGCGIYRNVWLSKTGPIHVGGWGTYVTTSSVDEKQAVLNLATTLVNESDTNENVTVCSSLQDAEGREVAETRSSGEAEAGKEVVFTQQLTVKQPQLWDIDTPYLYTLVTKVMRNEECMDRYTTPVGIRTFSLDARKGFTLNGRQTKINGVCMHHDLGCLGAAVNTRAIERHLQILKEMGCNGIRCSHNPPAPELLDLCDRMGFIVMDEAFDMWRKKKTAHDYARYFNEWHERDLNDFILRDRNHPSVFMWSIGNEVLEQWSDAKADTLSLEEANLILNFGHSSEMLAKEGEESVNSLLTKKLVSFVKGLDPTRPVTAGCNEPNSGNHLFRSGVLDVIGYNYHNKDIPNVPANFPDKPFIITESNSALMTRGYYRMPSDRMFIWPKRWDKSFADSTFACSSYENCHVPWGNTHEESLKLVRDNDFISGQYVWTGFDYIGEPTPYGWPARSSYFGIVDLAGFPKDVYYLYQSEWTDKQVLHLFPHWNWTPGQEIDMWCYYNQADEVELFVNGKSQGVKRKDLDNLHVAWRVKFEPGTVKVIARESGKVVAEKEICTAGKPAEIRLTPDRSILTADGKDLCFVTVEVLDEKGNLCPDADNLVNFTVQGNGFIAGVDNGNPVSMERFKDEKRKAFYGKCLVVIQNDGKPGKAKLTATSEGLRQAVLKISAEEL
Km [7]: 87 ± 7.4 µM
kcat [7]: 4 s⁻¹
kcat/Km [7]: 46000 M⁻¹ s⁻¹

B6: BoGH31A (Bacteroides ovatus ATCC 8483) (protein)
chain: SNKVYEKTGDSVIVKVQHKETGGPRLVRLQVMGDKLIHVSATADSKFADPQSLIVVPQKKQTSFAVVQNGDTITVSTEEVKASVLASTGEVWFTDKNGELILQENKGGGKTFTPIEVEGTKGYTVCQVFESPEDEAFYGLGQHQADEFNYKGKNEELFQYNTKVSVPFVVSNKNYGILLDSYSFCRFGNPNDYSQLNRIFKLYDKTGQEGALTGTYVPKKGETLVRREDSIYFENLKTIENLPKKLPLMGAKVTYEGEIEPAQTGEFKFILYYAGYVKVYLNNEPVVPERWRTAWNPNSYKFAAHLEAGKRVPLKIEWQPDGGQSYCGLRALTPVNPEEQGKQSWWSEMTKQLDYYFMAGENMDDVISGYRSLTGKSPVMPKWAMGFWQSREKYNTQEEMLGALKGFRDRKIPLDNIVLDWNHWPENAWGSHEFDKARFPDPKAMVDSIHAMHARMMISVWPKFYVTTEHFKEFDENGWMYQQSVKDSLKDWVGPGYHYGFYDAYDPDARKLFWKQMYEHYYPLGIDAWWMDASEPNVRDCTDLEYRKALCGPTALGSSTEFFNAYALMNAEAIYDGQRGVDNNKRVFLLTRSGFAGLQRYSTATWSGDIGTRWEDMKAQISAGLNFAMSGIPYWTMDIGGFCVENRYVAGQKQWNATKTENADYKEWRELNTRWYQFGAFVPLYRAHGQYPFREIWEIAPEGHPAYQSVVYYTKLRYNMMPYIYSLAGMTWFDDYTIMRPLVMDFTADAEVNDIGDQFMFGPSFMVSPVYRYGDRSREIYFPQAEGWYDFYSGKFQAGGERKVIEAPYERIPLYVRAGAIIPFGDDIQYTDEKPAEHIRLYIYQGADGEFTLYEDEGVNYNYEQGMYAMIPMKYDEATKTLVIGERQGEFPGMLKERTFTVVTVNKEKAQPFDLNAKGVTVKYNGSEQTLKL
Km [8]: 31800 ± 5100 µM
kcat [8]: 0.071 s⁻¹
kcat/Km [8]: 2.2 M⁻¹ s⁻¹
Km [9]: 7700 ± 273 µM
kcat [9]: 1.6 ± 0.031 s⁻¹
kcat/Km [9]: 210 M⁻¹ s⁻¹
Km [10]: 378 ± 75 µM
kcat [10]: 31 ± 1.9 s⁻¹
kcat/Km [10]: 82000 M⁻¹ s⁻¹
